{"source": "paper PMC6868389", "about": "“HER3-targeted protein chimera forms endosomolytic capsomeres and self-assembles into stealth nucleocapsids for systemic tumor homing of RNA interference in vivo” (Nucleic Acids Research, 2019)", "molecular_target": "the molecule itself", "assay": "native gel or EMSA; native PAGE of purified HPK under neutral conditions (storage buffer 20 mM HEPES pH 7.45, 150 mM NaCl, 10% glycerol; pH 7.4), 4-15% gel, 25 mM Tris, 192 mM glycine pH 8.3"}
{"protein": "HPK, HER3-targeted penton base chimera (heregulin ligand - linker - Ad5 penton base - decalysine) (other, human | adenovirus serotype 5 (Ad5), domain II, oligopeptide linker; domain III, adenovirus serotype 5 capsid penton base (PB); domain IV, carboxy-terminal decalysine tail (K10); About 92 kDa monomer; also called HerPBK10; HPK capsomere; not shown: His6, N-terminal, kept) ELLPPRLKEMKSQESAAGSKLVLRCETSSEYSSLRFKWFKNGNELNRKNKPQNIKIQKKPGKSELRINKASLADSGEYMCKVISKLGNDSASANITIVESNEIITGMPASTEGAYVSSESPIRISVSTEGANTSSSTSTSTTGTSHLVKCAEKEKTFCVNGGECFMVKDLSNPSRYLCKCQPGFTGARCTENVPMKVQNQEKAEELYGGSGGSGSMRRAAMYEEGPPPSYESVVSAAPVAAALGSPFDAPLDPPFVPPRYLRPTGGRNSIRYSELAPLFDTTRVYLVDNKSTDVASLNYQNDHSNFLTTVIQNNDYSPGEASTQTINLDDRSHWGGDLKTILHTNMPNVNEFMFTNKFKARVMVSRLPTKDNQVELKYEWVEFTLPEGNYSETMTIDLMNNAIVEHYLKVGRQNGVLESDIGVKFDTRNFRLGFDPVTGLVMPGVYTNEAFHPDIILLPGCGVDFTHSRLSNLLGIRKRQPFQEGFRITYDDLEGGNIPALLDVDAYQASLKDDTEQGGGGAGGSNSSGSGAEENSNAAAAAMQPVEDMNDHAIRGDTFATRAEEKRAEAEAAAEAAAPAAQPEVEKPQKKPVIKPLTEDSKKRSYNLISNDSTFTQYRSWYLAYNYGDPQTGIRSWTLLCTPDVTCGSEQVYWSLPDMMQDPVTFRSTRQISNFPVVGAELLPVHSKSFYNDQAVYSQLIRQFTSLTHVFNRFPENQILARPPAPTITTVSENVPALTDHGTLPLRNSIGGVQRVTITDARRRTCPYVYKALGIVSPRVLSSRTFKKKKKKKKKK", "values": [{"measurement": "stoichiometry N", "value": "≥ 5"}]}
